From the supplement of paper PMC10567573 come the findings set out here.

± gives the standard deviation.

This series is described as follows: protein stability index of a GFP-peptide fusion (GPS, HEK-293T) (PSI 1-6); higher = more stable.
The mark [1] stands for this setting: treatment: DMSO, c terminus: a fixed tail appended.
Setting [2] is: treatment: MLN4924 1 uM, 8 h, c terminus: a fixed tail appended.
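Further: 24-mer peptide tiles fused after GFP, lentivirally expressed, FACS-sorted into six equal bins by GFP/DsRed ratio, decoded by Illumina sequencing, PSI is the read-weighted mean bin number.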

Regarding GMQMAEDSKSLKTHQTQPGIRRAR [NET1], the protein stability index amounted to 4.78 ± 0.36 under setting [1] and 4.69 ± 0.46 under setting [2].
As to GMRDADYIAAFLHVLLPVALEFQP [HDAC6], the protein stability index under setting [1] worked out at 3.02 ± 0.47 and the protein stability index under setting [2] stood at 2.96 ± 0.42.
Take GNSISISALQSLLQHLIGLSNLTH [PRAME]: the protein stability index was determined as 2.54 ± 0.036 under setting [1] and 2.62 ± 0.41 under setting [2].
As to GNSRSAPPTRGPPPSYGGSSRYDD [RBMX], the protein stability index turned out to be 4.94 ± 0.34 under setting [1] and 5.05 ± 0.15 under setting [2].
Consider GPIPSHMIHRTRKQKYFYKGGLVW [CLK3], for which the protein stability index under setting [1] was 2.47 ± 0.027 and the protein stability index under setting [2] was 2.45 ± 0.24.
In the case of GPMRPEQFSDEVEPATPEEGEPAT [GAGE1], the protein stability index was 5.39 ± 0.2 under setting [1] and 5.266 ± 0.044 under setting [2].
The corresponding values for GPRFGPRNDKIKHVQNQVDEVIDV [VAMP4] are 4.24 ± 0.49 and 4.63 ± 0.22.
The like results for GPRFLAYFGSFATVGLLWFAHHSL [TMEM175] were, in that order, 3.17 ± 0.2 and 3 ± 0.27.
With GQRLAVCVPAHPPPCAWACPVPAH [CTBP1-DT], the protein stability index reads like this: under setting [1], 2.7 ± 0.39; under setting [2], 2.8 ± 0.1.
For the sequence GREEKCVWKHGITPPLKNVRKKRF [TAF7L], the protein stability index is, setting by setting: under setting [1], 3.98 ± 0.34; under setting [2], 4.03 ± 0.41.
On to GSDAEQSTSGQPYPTSDQEGDPGS [LCOR], for which the protein stability index stood at 5.53 ± 0.35 under setting [1] and 5.59 ± 0.28 under setting [2].
Under setting [1], GSKVTCRGLLEYFKAYIKIYQGED [ATL3] returned a protein stability index of 2.31 ± 0.14.
On to GSKYYNVEAMYCYLRCIQSEVSFE [SMG5], for which the protein stability index turned out to be 3.05 ± 0.94 under setting [1] and 2.1 ± 0.68 under setting [2].
For the sequence GSLDLVPGGLTLEEHSLEQVQSMV [SPDEF], the protein stability index is, setting by setting: under setting [1], 4.35 ± 0.38; under setting [2], 4.66 ± 0.21.
The corresponding values for GSRSNGMWAHSMTVQDYQDLIDRG [ATE1] are 3.92 ± 0.29 and 4.08 ± 0.29.
The like results for GTKQGHLLLYRIRKDVGCNRFEVT [VPS39] were, in that order, 2.12 ± 0.37 and 2.41 ± 0.28.
The corresponding values for GTLDNSKSMKPYNYCSAYESFYES [NEUROD6] are 3.02 ± 0.41 and 3.12 ± 0.35.
With GTTYLPGIVGLNNIKANDYANAVL [USP39], the protein stability index reads like this: under setting [1], 2.47 ± 0.097; under setting [2], 2.44 ± 0.23.
Regarding GVADFSATYLRCQLLLIKALQEKL [INTS4], the protein stability index by setting is: under setting [1], 2.77 ± 0.42; under setting [2], 2.65 ± 0.48.
GVLDALHVLEGLFRTDPEAKVKLV [ZSWIM9] returned a protein stability index under setting [1] of 2.28 ± 0.23 and a protein stability index under setting [2] of 2.25 ± 0.18.
Turning to GVNTVFHCASPPPSSNNKELFYRV [NSDHL], the protein stability index reads like this: under setting [1], 2.53 ± 0.23; under setting [2], 2.4 ± 0.1.
Consider GVSFHIDSAELEPGSQTAVKNSNR [FBXO34], for which the protein stability index is, setting by setting: under setting [1], 4.71 ± 0.26; under setting [2], 5.03 ± 0.38.
The corresponding values for GWSTPPKCRSTISAEKCGPPPPID [CFHR2] are 3.72 ± 0.38 and 3.93 ± 0.25.
Take GYGIYYFIYSTWKGRTIYLEDIYV [SAT2]: the protein stability index is 2.9 ± 0.16 under setting [1] and 2.78 ± 0.43 under setting [2].
Take GYRQQKAYIATQGPLAETTEDFWR [PTPRD]: the protein stability index under setting [1] is 3.28 ± 0.22 and the protein stability index under setting [2] came to 3.36 ± 0.42.
Turning to GYSSLDQSPDEKPLVALDTDSDDD [FAM219A], the protein stability index came to 5.69 ± 0.17 under setting [1] and 5.48 ± 0.31 under setting [2].
Consider GYWRVRLWNGDKYAATTTPFTPLH [TRIM39], for which the protein stability index is, setting by setting: under setting [1], 2.08 ± 0.42; under setting [2], 2.35 ± 0.93.
The corresponding values for HALRKKQLKRQKRDYIHSLKLLNV [FAM9B] are 2.6 ± 0.42 and 2.84 ± 0.27.
Turning to HCWDVAGAGIIVTEAGGVLMDVTG [IMPA1], the protein stability index under setting [1] was found to be 2.4 ± 0.25 and the protein stability index under setting [2] was 2.52 ± 0.51.
Turning to HDPLYGKLFSTYLRPPHTSRGTSQ [LPCAT4], the protein stability index under setting [1] worked out at 3.27 ± 0.34 and the protein stability index under setting [2] amounted to 3.76 ± 0.21.
As to HEEERINIYCLNCEVPTCSLCKVF [TRIM55], the protein stability index under setting [1] came to 2.95 ± 0.39 and the protein stability index under setting [2] is 3.16 ± 0.32.
The corresponding values for HEEQLQRLKLLKDREVDAATSATS [FBF1] are 5.18 ± 0.28 and 5.25 ± 0.24.
The corresponding values for HGDARATGREMHGKNWSKLCKDCQ [TPPP] are 4.18 ± 0.13 and 4.53 ± 0.23.
As for HGVELHSDVIEYAKQKLDFFIRTS [PCMTD2], the protein stability index reads like this: under setting [1], 2.37 ± 0.2; under setting [2], 2.48 ± 0.29.
With HHKVYDLTKFLEEHPGGEEVLREQ [CYB5A], the protein stability index is, setting by setting: under setting [1], 4.44 ± 0.27; under setting [2], 4.65 ± 0.19.
Take HHVEREKDHSSSRPSSPRPQKASP [BTBD10]: the protein stability index reads like this: under setting [1], 5.36 ± 0.28; under setting [2], 5.54 ± 0.14.
Regarding HIDPDVLYPSLNVTSFDSVVPEKL [ALG2], the protein stability index reads like this: under setting [1], 3.83 ± 0.25; under setting [2], 3.91 ± 0.21.
For the sequence HKLQEEKAFREEMKIFREKIEDFR [CCDC70], the protein stability index was 3.38 ± 0.3 under setting [1] and 3.61 ± 0.31 under setting [2].
As for HKPKNSEELYKEIDGVATTRYSVA [PTPRD], the protein stability index came out at 4.43 ± 0.17 under setting [1] and 4.66 ± 0.21 under setting [2].
Consider HKYNTTSTSYSPLASLPLKADTKG [PLAGL1], for which the protein stability index under setting [1] came out at 4.23 ± 0.16 and the protein stability index under setting [2] is 4.41 ± 0.2.
HLADLVSYSIQKVIGFAKMIPGFR [VDR]: the protein stability index runs as follows: under setting [1], 4.2 ± 0.43; under setting [2], 4.18 ± 0.25.
HLHLETFKAVLDGLDVLLAQEVRP [PRAME] came in with a protein stability index under setting [1] of 2.18 ± 0.43 and a protein stability index under setting [2] of 1.98 ± 0.29.
The like results for HLVEETRIHVLPSLNPDGYEKAYE [CPXM2] were, in that order, 4.46 ± 0.15 and 4.34 ± 0.046.
As for HPGSGTKVQFNLQFTKPNASLGDV [SASS6], the protein stability index reads like this: under setting [1], 3.17 ± 0.44; under setting [2], 3.23 ± 0.23.
Turning to HQLYTSSSHHSHSYIGLPYADHNY [KMT2E], the protein stability index under setting [1] turned out to be 2.5 ± 0.042 and the protein stability index under setting [2] was found to be 2.53 ± 0.21.
For the sequence HRRGLGVDSKPELQRVLEHRRRNQ [FAM107A], the protein stability index under setting [1] worked out at 4.01 ± 0.4 and the protein stability index under setting [2] was determined as 4.11 ± 0.31.
As for HSHPPEIKDQGGAGEGLVRSANGF [MAP2], the protein stability index is, setting by setting: under setting [1], 4.7 ± 0.14; under setting [2], 4.76 ± 0.2.
Turning to HSRRHESYSRGYSYHDGYGEALGR [RBMY1A1], the protein stability index reads like this: under setting [1], 3.14 ± 0.3; under setting [2], 3.24 ± 0.36.
As to HTLILMFIWFVCSLVYYGLTLSAG [SLC22A15], the protein stability index amounted to 2.42 ± 0.79 under setting [1] and 2.16 ± 0.36 under setting [2].
With HVHCFTCAACKTPIRNRAFYMEEG [PDLIM7], the protein stability index by setting is: under setting [1], 2.24 ± 0.11; under setting [2], 2.47 ± 0.23.
The corresponding values for HVNFSHLTTKDYMEMYNVIMTVKE [SLC6A17] are 2.41 ± 0.32 and 2.44 ± 0.52.
For IAGGLAGMGGIQNEKETMQSLNDR [KRT18], the protein stability index worked out at 4.83 ± 0.24 under setting [1] and 4.81 ± 0.33 under setting [2].
For IANCKLFRLQLQQGLFRIRVHSP [GAN], the protein stability index amounted to 3.45 ± 0.51 (treatment: DMSO, c terminus: native) and 2.6 ± 0.38 (treatment: MLN4924 1 uM, 8 h, c terminus: native).
For the sequence IARVADGLPLAASMQEDEQSGRDL [SEC22B], the protein stability index is, setting by setting: under setting [1], 5.24 ± 0.22; under setting [2], 5.33 ± 0.15.
As for IASIGRHRYIAYMANQEAAIQAFL [IQUB], the protein stability index reads like this: under setting [1], 2.39 ± 0.73; under setting [2], 2.17 ± 0.36.
In the case of ICCDKCSVWQHIDCMGIDRQHIPD [KMT2E], the protein stability index is, setting by setting: under setting [1], 2.7 ± 0.28; under setting [2], 2.87 ± 0.43.
IDEHHFVAVALRKPDGSRHQDVPS [AASDHPPT]: the protein stability index runs as follows: under setting [1], 4 ± 0.17; under setting [2], 4.07 ± 0.19.
As for IDNANRILGPAYFVTYVFFVFFVL [PKD2L1], the protein stability index is, setting by setting: under setting [1], 2.67 ± 0.71; under setting [2], 2.67 ± 0.6.
IDQWSMLGDMQTAREGAGLVVASG [KLHL12] gave a protein stability index under setting [1] of 3.36 ± 0.15 and a protein stability index under setting [2] of 3.52 ± 0.051.
For the sequence IENLAKANPQYTVYSQASTMSIPV [PPP2R5C], the protein stability index is 2.8 ± 0.22 under setting [1] and 2.65 ± 0.25 under setting [2].
As for IFRDNQWVGFDDVESFKTKVSYLK [CHIT1], the protein stability index is, setting by setting: under setting [1], 2.54 ± 0.34; under setting [2], 2.81 ± 0.24.
With IGKWFDFKLFFNGRPGIVAWTLIN [DHCR7], the protein stability index is, setting by setting: under setting [1], 2.56 ± 0.42; under setting [2], 2.46 ± 0.18.
The like results for IGSVEEQLAQLRCEMEQQSQEYQI [KRT16] were, in that order, 4.82 ± 0.15 and 4.85 ± 0.18.
In the case of IHFIAVAVCLLGVGTMVGADILAG [SLC35F2], the protein stability index came out at 2.8 ± 0.18 under setting [1] and 3.31 ± 0.45 under setting [2].
With IIMWDIGGRKGRTLLLQGHHDKVQ [WDFY1], the protein stability index is 2.08 ± 0.55 under setting [1] and 2.2 ± 0.12 under setting [2].
Take IIYMGSFMLMLLVLGIQVKCFHEI [CDS1]: the protein stability index by setting is: under setting [1], 3.57 ± 0.85; under setting [2], 3.27 ± 0.34.
Consider IKHVLQTFGPIPEFSRATAEKVNQ [CRYL1], for which the protein stability index was found to be 3.39 ± 0.44 under setting [1] and 3.43 ± 0.51 under setting [2].
For IKWLKEAEEESSGGEEEDEDENIE [EIF5], the protein stability index stood at 5.41 ± 0.14 under setting [1] and 5.49 ± 0.25 under setting [2].
The corresponding values for ILIIISVIVQIKQPRKKYVQRKSD [NETO1] are 2.86 ± 0.64 and 2.52 ± 0.36.
Turning to ILLKVKTEIEEELKSLDKEISEAF [BCL2L13], the protein stability index by setting is: under setting [1], 2.75 ± 0.36; under setting [2], 3.19 ± 0.33.
Take ILNFNDLMSSAVPMTPEDPSFWDC [AASDHPPT]: the protein stability index by setting is: under setting [1], 2.71 ± 0.31; under setting [2], 2.92 ± 0.2.
ILSEEGRRQQAKLKELQAIAERLG [KCNAB2]: the protein stability index was 3.57 ± 0.38 under setting [1] and 3.73 ± 0.3 under setting [2].
